Data on 15 sequences can be found in a protein production outcome set (Wang et al. 2014).

A short description of this series: label from the status in PepcDB records.
Regarding “MIYLHAIDPIAFSLGPVKVHWYGLMYLAGFGAAWCLGRQRIQAGRLLGVNIDGFSDLLFYAMMGVVLGGRVGYMLFYAFHDFLQEPLLLFRVWEGGMSFHGGLIGVLLAVAWWSRRQRMHMFDVVDFCAPLVPVGLGFGRLGNFIGGELWGKLTHNGWGVIFPRAPLSDVPAGQLAMQDVINFVQIQEHYAAGLLGHYARHPSQLYEAFLEGLVMFIVLWLFSRKPRPRYAVSGLFALLYGVFRFLVEFVRMPDNGVYVAFGWLTRGQILSLPLIVIGLFLFWLSCRSPVLQPVPAPEVAK”, the protein production result is “failed”.

With “MIYLQNFITTTIQLNIYLILVIGLLYVIIHYYRNKGVNAFLDIYLNYIPVLTHEFGHVLFNKLAGGKAKDLVIVTSPRERKVTSQQGYAITQSKGYLGQFITTIGGYLMPPLMFLTGLVSIHYQYPSIFITIYLFIFIYYLFITSRKLSPLIVIILISSLLYLVFKQDHQWFIYDIVTLSYHFILGVLLGEILQSSWTIFRLTFQRPKPSWDGSALTKVTRVPTFIFSLVWILFNLYTVYLLIKYTIL”, the protein production entry is reported as “failed”.

Consider “MIYMDVYMNSYFPHNLDTENSIIDLSKWQELADLIVDIFGADCGAIIKFTGHSFTTMLSSRNEASFLHQGTEWSSDSKSFCRTIIKTGKPLYIANAVEDEYWFDAPPVVNGPVRSYCGVPIFSPDGSIYGTICAIDTKSTRYEDALTKLLLHLSKLITSDLKIAEKAEQHRLMALTDQTTGLLNRRGLNVLSEQKFKDAKRNQDHIGVLYLDIDNLKIINDNFGHLAGDKCIKLLATILKKMVRQSDLIARIGGDEFTVLALINSENTNELDHLSMRIREVYQNEIKDNAELNMSNISIGQHLVSYDSNASLKEMLAKADSLMYQEKIDKS”, for which the protein production entry is “failed”.

As to “MIYQVDGKTIVLVLEQGEDIVEAVTDIAREQNGKFGTVSGIGACSSAELNFYNLETQTYEKKLIDEPLELIGLMGNISHIDEQPFAHLHATFGTNQYETLSGHLTKAVVSATAEIIITMTNLDINRKHNETIGLNLLDLLEHHHHHH”, the protein production result was “not failed”.

As to “MIYRILIVISIFMISFSGFGQTDYFKLGKEYYNNGEYEKAAATYSEVIKKEENLPKVYETYLSTLYKLKNYTEAEKIIKKMVKVGSPENYTYRIDYALFYKQQNLTDKAEKEFSAFVSDIQKNSTAVDISGAYLQKLGEYTWAKQLYLQARKNFDRYAYCFELSSIYNRLGQTENMFDELLNYLSVNPASLEEVQNTFQNELDTDEKFALFETKVYDRINKDPNDIVYNQLLLWLNLQRKNFTKAFIQAKAIDKRNRQTGTTVLEVGNIALENKDYDAAGACFQYVSDNFKESFNYSIARRLLIQTREEQIKNTFPVDKQKIVGLISDYNQLLKENGRTAYTLESLRNMALLNAFYLDKRDTAVVILKSLIENPYTDNRLRGKAKIDLGDIYLLTGEPWESTLLYSQVEKDFKEDQLGHEAKLRNAELYYYKGEFVLAQEQLDVLKLATTREISNDAIQLSVFITENSGLDSTTDALKDYSAIQLLLFQRKYDEALQAANALLKQYPHHELTDDVYWLQATILRQTGKPTEALEMLKKISTGYADDLLGDDALFTSAQIFDYDLKNTEKAMQLYQDFLIQYTNSVYVTEARKRFRILRGDKI”, the protein production result was “failed”.

As to “MIYYLIGVALFIFMLEQLVPGWKLPKVSTWVARVIFLNIVQVSIALLAGITWNKWMMGHSLLHTSDALPPLLAGFAAYFVNTFVTYWWHRARHANDTLWRLFHQLHHAPQRIEVFTSFYKHPTEMVFNSLLGSFVAYVVMGISIEAGAYYIMFAALGEMFYHSNLRTPHVLGYLFQRPEMHRIHHQRDRHECNYSDFPIWDMLFGTYENPRRIDEPQGFAGDKEQQFVDMLLFRDVHSLPGKTQPAPVLVKPDVR”, the protein production result is listed as “failed”.

For “MKAAEKYAKDVVAGKILVCKWIMLLAQRHLDDLAVSKRKDFPYKFDPAKAEKVAKFLQLLPHTKGKWGGKKQLIKLEPWQLFSVCVPFGWVRKKDGTRRYRTILVFVPRKNGKSIIGGGVGLYMFVADGEFGAEVYSGATTEKQAWEVFRPAKLMVERTDDLREHYGVDVNASNMVVLADGSRFEPVIGKPGDGSSPSCSVVDEYHEHQDSTLYDTMETGMGAREQPIMLVITTAGSSIGGPCHQLIRDSERMLEGVIDRPDLWPALYTIDQGDDWTSEIALRKANPNFGISVAEDFLLARQRDAMQSATKQATFRTKHLNEWVGAKNAWLNMLRWKEAPVRKSLAELEGRSCYGSLDLASKIDIAANLLIFPPHGDDPFWHIHARYYLPEARVLEELDSNTARYREFDALGLLTLTDGEVTDFEVIKEDMREFAGRFDIRAYAYDPWQATQLAQEMDAEGLPMVELRQTVQNLSEPMKEVEALVLQRKLAHGDCPVLTWMASNVVAKLDVKDNIYPNKERPENKIDGMVSLITGCAVAIKLGIDDSGHFDDFLASPIVVG”, the protein production result is “failed”.

Consider “MKAAPARSAAYDNPYAKRLFLIIDSLPQMQRALAMTLSSFGANTVEYASKASDALAKMAKYEFDVVLCDYDLGNGYDGLYLFEEIRERNLLKQSCVFMIVTGERRAQRVISAAELAPDDYLLKPFTGEVLRDRLERAMRKREAFRLVDENILRHDYLSAIETCGRKIEENGEFALDFMRLKGSLALKINDFDTARDAYMQVLRLRPATWAKMGLAKSLAGLKSHDEARLLFEAVLADNNQVMEAYDWLARLYRGNHDLGRAQHTLQTAADMSPVVFRRQQQLAQVAVLNHDLAAAEAACQQTLDIAKYTWHRSPTHYAALLRVQLARGDNGNAVRTLANLKHDYRYNEEGEWLAGVMDSQLQAKNGNADKARELLEAAGERFKQLAPKLDQESQLEYARACYQQGRDGQGNAVMEYLVRNHHDDEDMLEHFGDMFEEIGLSQAGRQLIAQNVKSVLELNNQAVREAQSGQFDAAIERFVKALDEMPQNVQIMLNLINAVLAYVSQNGWHESHMRRAYELLGKVRDTAPTNNKFQKILQSWRLLVDKMDKPQWAL”, for which the protein production entry is given as “failed”.

With “MKAERPDTRKLKALKRGHIAEYRAALCLMLKGYRIVAMRYRTRLGEIDIIARRGDLVACVEVKARVSLEDAVFAVTDTAQRRIRAASDLWLSRQGDFHRLSVRYDIVAVTPWRWPRHLPDAF”, the protein production result is “failed”.

As to “MKAIIMAGGQGKRLRPLTCNLPKPMMPIMQKPVLQYIIELLKKHGINEIGITLHYLPDEVMDYFGDGKELGVNIHYFIEQSPLGTAGSVRNAESFLDETFVVISGDALTDVNLTNILQYHKEKNAMVTIVLKKVTIPLEYGVAITDTEGRISNFIEKPGWGEIFSDKANTGIYVMEPGIFEFYNKDKKFDFSEELFPELLKSGKEIFGYVVNDYWRDIGNIEQFMKCNFDILNGYVDVDVDIDASQHQKGVWIGKNTIVSDNVKVIPPVYIGDNSEIRYGAEIGPFAVIGRNNIISEMATIKRSIIFENCYIGSGAELRGSVVSNNVQVGGGVSTFEESAIGTGSLVGEKSVVKAGVKIWPDKVIGSKTIIKTNVVWGENRCKVLFGKEGISGEINVELTPEFVSKLASAFASNLRMNSKVVVCSDYNLAAEMLKYSFVSGLISMGIEVYSAKEMTIPMLRFSTAYFKADAAVYIYCKGSNKEKVNILFIDKDGIMISRSMEKKIANSFLREDFRRTRANNFKRLRDFGECMGYYEDYIKENLCIQEIRNSGLKVAVSMENKLIKNEVKSIFSDLKIQYSIYDNYADLEGLKKEVIEKKMDFGVCISENCDKAIIIDENANIISTQMYESIKALILISVYKFKTIVAPVNSSKALKYIAKRYNCKYVKSKISERYILNEYILNEKDKNIKEVLFSYLSSTDALNIVINIINILARGKIKLSELMERIPNYILREKEIACSWDNKGKIMRSLIEENISKSIELIEGIKVNYEDAWVLIIPDSDEPICKIYAESNDEEKTDKIINEFESEIELFMKN”, the protein production entry was “failed”.

In the case of “MKAKAILLASVLLVGCQTSQNTGNVQQHAQSLSAAGQGEAGKFTSQARWMDDGTSIAPDQDLWAFIGDELKMGIPENSRIREQKQKYLRNKSYLHDVTLRAEPYMYWIAGQVKKRNMPMELVLLPIVESAFDPHATSGANAAGIWQIIPSTGRNYGLKQTRNYDARRDVVASTTAALDMMQRLNKMFDGDWLLTVAAYNSGEGRVMRAIKANKARGKPTDFWSLSLPRETKLYVPKMLALSEILKNSKRYGVRLPTTDESRALARVRLNSPVEMAQVADMAGMSISKLKTFNAGVKGSTLGVSGPQYVMVPKKHAEQLRESLASGEIDAVQSQLIADNTPLNSRSYKVRSGDTLSGIASRLGVSTKDLQQWNNLRGSRLKIGQSLTVGAGSSAQRLANNSDSITYRVRKGDSLSSIARRHGVNIKDVMRWNHDTDNLQPGDQLTLFVKDNSTPDSLEHHHHHH”, the protein production entry was “not failed”.

Turning to “MKAKLENRLERQLQQLSYARGLILDEIGYLPMTSEEASLFFRLLNRRYEKASIILTSNKGFADWGEMFGDNVLATAILDRLLHHSTTLNIKGESYQLKEKRKVGALTKSATPISEDEMAESGQQK”, the protein production result was “failed”.

Regarding “MKAKREQILIRTSWISTIGNAILSTSKIIVGLWAGSLAVLGDGIDSATDVIISIVMIFTARIISQPPSKKYVFGYEKAEGIATKILSLVIFYAGVQMLISSIGSIFSEEAKEIPSAIAIYVTIFSIIGKLLLALYQYKQGKKIDSSMLTANAINMRNDVIISSGVLLGLIFTFIFKLPILDSITGLIISLFIIKSSIGIFIDSNVELMDGVKDVNVYNKIFEAVETVPGASNPHRVRSRMIGNLYMITLDIEVNPQITITQAHQIADAVEKSIKSSIDNVYDILVHVEPAGECQTDEKFGIDKGMVN”, the protein production result was “failed”.

For “MKALEGFTILLALVGVIPRIEGCIRVPPGVTAAKSPVDDNYVLSVNGNTQSYVPGQRYNVSLSAFSGLSFISFMLALDLESGDGDGDANALGTWEIADLAETRFSPRCPNLVENTNTNVKTRVDVFWVAPSSPGQGCILLRATVMQHRDVWFMDDGFLTKRMCEEEVDDIDTQPSIVDPCCACDEAKYELTFEGKWSRHTHPKDFPANSWRTRFSDIIGASHTLDYRFWQYGELASEGLREVAEHGSTRTLESELKDQSEHIRTIIKARGIAYPNVTGKTFAVFRVDSNHHLISLVSMVDPSPDWIVGVSGLELCLPNCSWVENKVHNLYPWDAGTDSGPSYMSADQPQVPPDVVRRIKSNFPNDPRSPFYDPTGAQMKPLATLHINRRRLYEKNCESSDSEQVPPECATNSWSRWDECTTKCGPGKQYRIREFKNPALASRHRCNNALREEKNCVGHKCAGFNEETAEGGEPEVAPSPGSSDDPQCGLSDWSEWSSCTVTCGTGEMTRSRHYLNKKAKKKCQKASRARLHETKICEAMECGGDIENEGGAGEPEEEQAGGDGGGSAEKRSIFRNFESYSQHREDYIPPVCGVTPWSDFSPCMGPCGGHGKRQRIRKVWNNNQVYGVTDPNDDGQDPCRHIKLHEEVNCTNPSCDTIVPGFCYDELTDSPCRDNDVANFWYYDHVSDQCAIYWSDRCDTNRNKFKSKEECEETCRLPRHKQELQHDGIPAIDCLVSDWVSHSCNASCGDGFQLRTRRVLRTPKYGGKPCPKHLVRLDRCYQRCDDMYSISGRGFGERRHVVRAPQPEPQDECRYSEWSAWTPCTATCGDNAVRQRTRTLMNTDLSYKCKDRVRMEKCVMMPCQLTSNDDPERW”, the protein production entry is given as “failed”.

As to “MKALRAFAIVAASLLLATGAAAQVSLSPPSGPNPFPKPLEPEKPKPRPPAPAKAPATEAKDKAKKPGDKPDAKAAPEGGAATAEDPNVDLVYGAYQRGFYKTAFELAQKRAADNDAKAMTMLGELYANALGVKRDYKKAAEWYSRAADLGDREAMFALAMARMGGRGGPPNREEAAKWLAQAAKLGEPKAAYNLALLYLDGQTFPQDVKRAAELLRMAADAGNPEAQYALATFYKEGTGVTKSIEQSVRLLQAAALAGNVPAQVEYAIALYNGTGTPKNEPAAVALLRKAARANNPIAQNRLAHVLVSGQGAPRDINEAMKWHLIAKTAGKGDLQLDQTLAQMSAEDRAKAEEAARTWIGGGK”, the protein production entry is “failed”.
